From PMC6154995, “Heme-dependent Inactivation of 5-Aminolevulinate Synthase from Caulobacter crescentus” (Scientific Reports, 2018)

Target: the molecule itself
Assay: SEC + native gel or EMSA; data not shown; purified yellow (PLP) and red (heme) fractions of recombinant cALAS; oligomeric state in solution; conditions not given

| Protein | stoichiometry N |
| --- | --- |
| 5-aminolevulinate synthase from Caulobacter crescentus, PLP form (yellow form) (enzyme, pyridoxal 5'-phosphate (PLP), predicted to bind to the ε-amino group of Lys248, 5-aminolevulinate synthase (ALAS) of Caulobacter crescentus CB15, gene CC_1355, 408 residues, predicted mass 44,273 Da; gene PCR-amplified from genomic DNA; Same polypeptide as m2; also called cALAS; C. crescentus ALAS; source: E. coli BL21(DE3) pLysS, pET-28b, purified (HisTrap FF Crude, Mono Q; first, yellow eluate of the anion exchange column)) not shown | 2 |
| 5-aminolevulinate synthase from Caulobacter crescentus, heme form (red form) (enzyme, 5-aminolevulinate synthase (ALAS) of Caulobacter crescentus CB15, gene CC_1355, 408 residues, predicted mass 44,273 Da; gene PCR-amplified from genomic DNA; Same polypeptide as m1; also called cALAS; red form of cALAS; source: E. coli BL21(DE3) pLysS, pET-28b, purified (HisTrap FF Crude, Mono Q; second, reddish-brown eluate of the anion exchange column)) not shown | 2 |
